Source: US8367390B2, “Galactanase variants” (Novozymes A/S, priority 2002, dated 2013)

Assay: Activity with ONPG, release of o-nitrophenol (ONP) at 405 nm
Assay type: biochemical
Protocol: The activity of HIGAL and MTGAL with ONPG was tested by mixing 200 microliters (normally 5.5 mg/ml) ONPG in 50 mM sodium acetate, 1 mM CaCl2, 0.01% Triton X-100, pH 6.5 with 25 microliters galactanase (normally 1 mg/ml) in the well of a microtiter plate. Release of o-nitrophenol (ONP) was measured at room temperature at 405 nm every 10 seconds normally for 30 min on a SpectraMaxPlus (Molecular Devices). Effects on the observed release of ONP was studied with varied enzyme concentration, ONPG concentration and with addition of galactose (Gal), beta-1,4-galactobiose (Gal2) (Megazyme), beta-1,4-galactotriose (Gal3), beta-1,4-galactotetraose (Gal4), glucose (Glu), arabinose (Ara), galacturonic acid (GalA), maltose (Mal) or maltotriose (Mal3).
In Tables 8-11 below, incubation times required to increase the observed absorbance at 405 nm by given amounts are listed. Cells marked ‘n.r.’ indicate that the increase in absorbance was not reached in the experiment. In general, the initial increase in absorbance at 405 nm was very slow, but after a lag phase the rate of ONP release often increased drastically—often approximately exponentially. The most likely explanation for the observed kinetics is that ONPG reacts with the enzyme to give an enzyme-galactosyl intermediate which hydrolyses very slowly. Instead, the Gal of the intermediate is released by transglycosylation, initially with ONPG or added sugar as acceptor. In cases where the rate of ONP release increases, these transglycosylation products are even better acceptors than the initial ones. […] More likely, Gal inhibits the subsequent transglycosylation, which requires binding of ONPG to the +1 and +2 subsites, e.g., by binding to the +2 subsite. With 50 mg/ml Gal added (results not shown) release of ONP was even slower with only insignificant increase of absorbance at 405 nm in 30 min.

[1] = Table 8, enzyme 28 μg/ml, ONPG 5 mg/ml, no sugar
[2] = Table 8, enzyme 55 μg/ml, ONPG 5 mg/ml, Gal 5 mg/ml
[3] = Table 8, enzyme 55 μg/ml, ONPG 5 mg/ml, no sugar
[4] = Table 8, enzyme 110 μg/ml, ONPG 5 mg/ml, Gal 5 mg/ml
[5] = Table 8, enzyme 110 μg/ml, ONPG 5 mg/ml, no sugar
[6] = Table 9, enzyme 110 μg/ml, ONPG 1.25 mg/ml
[7] = Table 9, enzyme 110 μg/ml, ONPG 2.5 mg/ml
[8] = Table 9, enzyme 110 μg/ml, ONPG 5 mg/ml
[9] = Table 9, enzyme 110 μg/ml, ONPG 10 mg/ml
[10] = Table 10, enzyme 110 μg/ml, ONPG 5 mg/ml, Gal2 0.05 mg/ml
[11] = Table 10, enzyme 110 μg/ml, ONPG 5 mg/ml, Gal2 0.5 mg/ml
[12] = Table 10, enzyme 110 μg/ml, ONPG 5 mg/ml, Gal3 0.05 mg/ml

B1: HIGAL: GH Family 53 galactanase from Humicola insolens, SEQ ID NO: 2 (wild type parent) (protein, listed as Humicola insolens)
chain: ALQYKGVDWSSVMVEERAGVRYKNVNGQEKPLEYILAENGVNMVRQRVWVNPWDGNYNLDYNIQLARRAKAAGLGLYINFHYSDTWADPAHQTTPAGWPSDINNLAWKLYNYTLDSMNRFADAGIQVDIVSIGNEITQGLLWPLGKTNNWYNIARLLHSAAWGVKDSRLNPKPKIMVHLDNGWNWDTQNWWYTNVLSQGPFEMSDFDMMGVSFYPFYSASATLDSLRRSLNNMVSRWGKEVAVVETNWPTSCPYPRYQFPADVRNVPFSAAGQTQYIQSVANVVSSVSKGVGLFYWEPAWIHNANLGSSCADNTMFTPSGQALSSLSVFHRI
modifications: mat_peptide (1)..()
Effect of Ara on ONP release (Ara 5 mg/ml): about three times slower ONP release | Slowing of ONP release by addition of Gal (Gal 5 mg/ml): a factor of three | Effect of GalA on ONP release (GalA 5 mg/ml): weak inhibitory effect | Effect of GalA on ONP release (GalA 50 mg/ml): slows ONP release by about a factor two | Effect of Glu on ONP release (Glu 5 mg/ml): slight inhibitory effect | ONP release in 30 min (Glu 50 mg/ml, results not shown): < 0.02 | Effect of Mal or Mal3 on ONP release (Mal or Mal3 5 mg/ml): no significant effects on ONP release | ONP release compared at identical enzyme dosage (Table 8): faster than MTGAL | Time (min) to increase A405 by: 0.025 [1]: 41.4 min | Time (min) to increase A405 by: 0.05 [1]: 46.5 min | Time (min) to increase A405 by: 0.1 [1]: 51.0 min | Time (min) to increase A405 by: 0.2 [1]: 56.5 min | Time (min) to increase A405 by: 0.4 [1]: n.r. | Time (min) to increase A405 by: 0.8 [1]: n.r. | Time (min) to increase A405 by: 1.6 [1]: n.r. | Time (min) to increase A405 by: 3.2 [1]: n.r. | Time (min) to increase A405 by: 0.025 [2]: 57.0 min | Time (min) to increase A405 by: 0.05 [2]: n.r. | Time (min) to increase A405 by: 0.1 [2]: n.r. | Time (min) to increase A405 by: 0.2 [2]: n.r. | Time (min) to increase A405 by: 0.4 [2]: n.r. | Time (min) to increase A405 by: 0.8 [2]: n.r. | Time (min) to increase A405 by: 1.6 [2]: n.r. | Time (min) to increase A405 by: 3.2 [2]: n.r. | Time (min) to increase A405 by: 0.025 [3]: 20.4 min | Time (min) to increase A405 by: 0.05 [3]: 22.9 min | Time (min) to increase A405 by: 0.1 [3]: 25.4 min | Time (min) to increase A405 by: 0.2 [3]: 28.0 min | Time (min) to increase A405 by: 0.4 [3]: 30.9 min | Time (min) to increase A405 by: 0.8 [3]: 32.0 min | Time (min) to increase A405 by: 1.6 [3]: 35.0 min | Time (min) to increase A405 by: 3.2 [3]: 37.9 min | Time (min) to increase A405 by: 0.025 [4]: 32.0 min | Time (min) to increase A405 by: 0.05 [4]: 35.7 min | Time (min) to increase A405 by: 0.1 [4]: 41.5 min | Time (min) to increase A405 by: 0.2 [4]: 46.7 min | Time (min) to increase A405 by: 0.4 [4]: 52.7 min | Time (min) to increase A405 by: 0.8 [4]: 59.0 min | Time (min) to increase A405 by: 1.6 [4]: n.r. | Time (min) to increase A405 by: 3.2 [4]: n.r. | Time (min) to increase A405 by: 0.025 [5]: 9.0 min | Time (min) to increase A405 by: 0.05 [5]: 10.3 min | Time (min) to increase A405 by: 0.1 [5]: 11.5 min | Time (min) to increase A405 by: 0.2 [5]: 12.7 min | Time (min) to increase A405 by: 0.4 [5]: 13.8 min | Time (min) to increase A405 by: 0.8 [5]: 15.0 min | Time (min) to increase A405 by: 1.6 [5]: 15.0 min | Time (min) to increase A405 by: 3.2 [5]: 17.7 min | Time (min) to increase A405 by: 0.025 [6]: 28.7 min | Time (min) to increase A405 by: 0.05 [6]: n.r. | Time (min) to increase A405 by: 0.1 [6]: n.r. | Time (min) to increase A405 by: 0.2 [6]: n.r. | Time (min) to increase A405 by: 0.4 [6]: n.r. | Time (min) to increase A405 by: 0.8 [6]: n.r. | Time (min) to increase A405 by: 1.6 [6]: n.r. | Time (min) to increase A405 by: 3.2 [6]: n.r. | Time (min) to increase A405 by: 0.025 [7]: 9.7 min | Time (min) to increase A405 by: 0.05 [7]: 11.3 min | Time (min) to increase A405 by: 0.1 [7]: 12.7 min | Time (min) to increase A405 by: 0.2 [7]: 14.0 min | Time (min) to increase A405 by: 0.4 [7]: 15.5 min | Time (min) to increase A405 by: 0.8 [7]: 17.3 min | Time (min) to increase A405 by: 1.6 [7]: 19.5 min | Time (min) to increase A405 by: 3.2 [7]: 22.8 min | Time (min) to increase A405 by: 0.025 [8]: 6.0 min | Time (min) to increase A405 by: 0.05 [8]: 8.0 min | Time (min) to increase A405 by: 0.1 [8]: 9.2 min | Time (min) to increase A405 by: 0.2 [8]: 10.2 min | Time (min) to increase A405 by: 0.4 [8]: 11.3 min | Time (min) to increase A405 by: 0.8 [8]: 12.5 min | Time (min) to increase A405 by: 1.6 [8]: 13.8 min | Time (min) to increase A405 by: 3.2 [8]: 15.3 min | Time (min) to increase A405 by: 0.025 [9]: 6.3 min | Time (min) to increase A405 by: 0.05 [9]: 7.7 min | Time (min) to increase A405 by: 0.1 [9]: 8.8 min | Time (min) to increase A405 by: 0.2 [9]: 10.0 min | Time (min) to increase A405 by: 0.4 [9]: 11.2 min | Time (min) to increase A405 by: 0.8 [9]: 12.3 min | Time (min) to increase A405 by: 1.6 [9]: 13.5 min | Time (min) to increase A405 by: 3.2 [9]: 14.7 min | Initial rate (mOD/min) [10]: 2 mOD/min | Time (min) to increase A405 by: 0.025 [10]: 5.5 min | Time (min) to increase A405 by: 0.05 [10]: 6.8 min | Time (min) to increase A405 by: 0.1 [10]: 8.2 min | Time (min) to increase A405 by: 0.2 [10]: 9.5 min | Time (min) to increase A405 by: 0.4 [10]: 10.7 min | Time (min) to increase A405 by: 0.8 [10]: 11.8 min | Time (min) to increase A405 by: 1.6 [10]: 13.3 min | Time (min) to increase A405 by: 3.2 [10]: 15.2 min | Initial rate (mOD/min) [11]: 6 mOD/min | Time (min) to increase A405 by: 0.025 [11]: 2.7 min | Time (min) to increase A405 by: 0.05 [11]: 3.5 min | Time (min) to increase A405 by: 0.1 [11]: 4.8 min | Time (min) to increase A405 by: 0.2 [11]: 6.0 min | Time (min) to increase A405 by: 0.4 [11]: 7.2 min | Time (min) to increase A405 by: 0.8 [11]: 8.3 min | Time (min) to increase A405 by: 1.6 [11]: 9.7 min | Time (min) to increase A405 by: 3.2 [11]: 11.0 min | Initial rate (mOD/min) [12]: 40 mOD/min | Time (min) to increase A405 by: 0.025 [12]: 0.5 min | Time (min) to increase A405 by: 0.05 [12]: 1.0 min | Time (min) to increase A405 by: 0.1 [12]: 1.7 min | Time (min) to increase A405 by: 0.2 [12]: 2.3 min | Time (min) to increase A405 by: 0.4 [12]: 3.3 min | Time (min) to increase A405 by: 0.8 [12]: 4.8 min | Time (min) to increase A405 by: 1.6 [12]: 6.3 min | Time (min) to increase A405 by: 3.2 [12]: 7.7 min
